Laboratory results reported in publication PMC7921410, “Structure of mammalian Mediator complex reveals Tail module architecture and interaction with a conserved core” (Nature Communications, 2021).

B1: MED18 (natural protein, mouse (Mus musculus; endogenous in CH12), UniProt Q9CZ82 1-208, looked up)
chain: MEAPPVTMMPVTGGTINMMEYLLQGSVLDHSLESLIHRLRGLCDNMEPETFLDHEMVFLLKGQQASPFVLRARRSMDRAGAPWHLRYLGQPEMGDKNRHALVRNCVDIATSENLTDFLMEMGFRMDHEFVAKGHLFRKGIMKVVVYKIFRILVPGNTDSTEALSLSYLVELSVVAPAGQDMVSDDMRNFAEQLKPLVHLEKIDPKRLM
notes: MED18, Mus musculus, endogenous Head module subunit of Mediator; source: endogenous, CH12 mouse B lymphoma nuclear extract; immunopurified as part of Mediator (FLAG M2 agarose, FLAG peptide elution)
B2: MED11 (natural protein, mouse (Mus musculus; endogenous in CH12), UniProt Q9D8C6 1-117, looked up)
chain: MATYSLANERLRALEDIEREIGAILQNAGTAILELSKEKTNERLLDRQAAAFTTSVQHVEAELSAQIRYLTQVATGQPHEGSSYSSRKDCQMALKRVDYARLKISDVARTCEQMLEN
notes: MED11, Mus musculus, endogenous Head module subunit of Mediator; source: endogenous, CH12 mouse B lymphoma nuclear extract; immunopurified as part of Mediator (FLAG M2 agarose, FLAG peptide elution)
B3: MED28 (natural protein, mouse (Mus musculus; endogenous in CH12), UniProt Q920D3 1-178, looked up)
chain: MAASLGGMFTGQPPGPPPPPPGLPGQASLLQAAPGAPRPSNSTLVDELESSFEACFASLVSQDYVNGTDQEEIRTGVDQCIQKFLDIARQTECFFLQKRLQLSVQKPDQVIKEDVSELRSELQRKDALVQKHLTKLRHWQQVLEDINVQHKKPADMPQGSLAFLEQASANIPAPLKQT
notes: MED28, Mus musculus, endogenous upper Tail subunit of Mediator; source: endogenous, CH12 mouse B lymphoma nuclear extract; immunopurified as part of Mediator (FLAG M2 agarose, FLAG peptide elution)
B4: MED21 (natural protein, mouse (Mus musculus; endogenous in CH12), UniProt Q9CQ39 1-144, looked up)
chain: MADRLTQLQDAVNSLADQFCNAIGVLQQCGPPASFSNIQTAINKDQPANPTEEYAQLFAALIARTAKDIDVLIDSLPSEESTAALQAASLYKLEEENHEAATCLEDVVYRGDMLLEKIQSALADIAQSQLKTRSVTHSHSLPDS
notes: MED21, Mus musculus, endogenous Middle module subunit of Mediator; source: endogenous, CH12 mouse B lymphoma nuclear extract; immunopurified as part of Mediator (FLAG M2 agarose, FLAG peptide elution)
B5: MED30 (natural protein, mouse (Mus musculus; endogenous in CH12), UniProt Q9CQI9 1-178, looked up)
chain: MSTPPLAPTGMASGPFGGPQAQQAAREVNTATLCRIGQETVQDIVYRTMEIFQLLRNMQLPNGVTYHTGTYQDRLTKLQDHLRQLSILFRKLRLVYDKCNENCGGMDPIPVEQLIPYVDEDGSKNDDRAGPPRFASEERREIVEVNKKLKQKNQQLKQIMDQLRNLIWDINAMLAMRN
notes: MED30, Mus musculus, endogenous upper Tail subunit of Mediator; source: endogenous, CH12 mouse B lymphoma nuclear extract; immunopurified as part of Mediator (FLAG M2 agarose, FLAG peptide elution)

Columns and labels:
Assay in all cases: cryo-EM structure; endogenous mouse Mediator immunopurified from CH12 nuclear extract through 3×FLAG-MED19 or 3×FLAG-MED25; eluted in 50 mM HEPES pH 7.9, 100 mM KCl, 5% glycerol, 1 mM EDTA, 0.005% NP-40; map at 4.0 Å overall, focused refinement of the MED1 and knob/hook ends (6-10 Å)
Conditions in all cases: both partners purified
MED27 = biological target: T1, MED27 (mouse (Mus musculus; endogenous in CH12), UniProt Q9DB40 1-311)
T1 construct: MED27, Mus musculus, endogenous upper Tail subunit of Mediator; source: endogenous, CH12 mouse B lymphoma nuclear extract; immunopurified as part of Mediator (FLAG M2 agarose, FLAG peptide elution)
T1 sequence (looked up): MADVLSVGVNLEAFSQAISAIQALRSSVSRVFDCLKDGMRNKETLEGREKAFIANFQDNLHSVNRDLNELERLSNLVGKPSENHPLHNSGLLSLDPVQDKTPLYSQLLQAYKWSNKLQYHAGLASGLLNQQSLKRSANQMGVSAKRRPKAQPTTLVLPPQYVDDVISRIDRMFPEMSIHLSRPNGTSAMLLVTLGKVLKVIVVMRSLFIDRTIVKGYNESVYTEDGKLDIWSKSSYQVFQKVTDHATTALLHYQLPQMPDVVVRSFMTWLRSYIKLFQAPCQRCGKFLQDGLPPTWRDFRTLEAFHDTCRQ

MED20 = biological target: T2, MED20 (mouse (Mus musculus; endogenous in CH12), UniProt Q9R0X0 1-212)
T2 construct: MED20, Mus musculus, endogenous Head module subunit of Mediator; source: endogenous, CH12 mouse B lymphoma nuclear extract; immunopurified as part of Mediator (FLAG M2 agarose, FLAG peptide elution)
T2 sequence (looked up): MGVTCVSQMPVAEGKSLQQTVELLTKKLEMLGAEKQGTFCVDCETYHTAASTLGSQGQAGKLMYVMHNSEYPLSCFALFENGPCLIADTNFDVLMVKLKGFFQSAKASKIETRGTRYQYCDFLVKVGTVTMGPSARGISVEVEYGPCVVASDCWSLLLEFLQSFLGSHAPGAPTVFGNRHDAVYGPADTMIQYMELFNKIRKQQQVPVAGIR

MED17 = biological target: T3, MED17 (mouse (Mus musculus; endogenous in CH12), UniProt Q8VCD5 1-649)
T3 construct: MED17, Mus musculus, endogenous Head module scaffold subunit of Mediator; source: endogenous, CH12 mouse B lymphoma nuclear extract; immunopurified as part of Mediator (FLAG M2 agarose, FLAG peptide elution)
T3 sequence (looked up): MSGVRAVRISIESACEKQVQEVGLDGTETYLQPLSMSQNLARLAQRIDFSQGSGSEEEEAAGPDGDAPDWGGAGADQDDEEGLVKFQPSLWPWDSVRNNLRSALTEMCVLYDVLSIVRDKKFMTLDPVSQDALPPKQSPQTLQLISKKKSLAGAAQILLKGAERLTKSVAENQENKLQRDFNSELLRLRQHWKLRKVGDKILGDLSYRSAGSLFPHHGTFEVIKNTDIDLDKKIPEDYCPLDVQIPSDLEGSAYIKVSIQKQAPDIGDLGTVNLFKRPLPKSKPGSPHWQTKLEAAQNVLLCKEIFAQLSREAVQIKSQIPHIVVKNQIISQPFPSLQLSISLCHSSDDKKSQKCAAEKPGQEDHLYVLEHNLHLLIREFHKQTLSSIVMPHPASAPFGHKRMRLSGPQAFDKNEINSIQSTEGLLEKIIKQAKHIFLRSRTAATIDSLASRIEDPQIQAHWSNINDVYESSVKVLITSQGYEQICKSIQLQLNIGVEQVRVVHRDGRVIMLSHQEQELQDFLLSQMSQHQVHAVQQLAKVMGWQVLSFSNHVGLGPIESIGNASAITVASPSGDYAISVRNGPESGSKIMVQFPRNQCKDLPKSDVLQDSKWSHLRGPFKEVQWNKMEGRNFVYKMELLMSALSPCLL

MED28 = biological target: B3
MED30 = biological target: B5
MED22 = biological target: T4, MED22 (mouse (Mus musculus; endogenous in CH12), UniProt Q62276 1-200)
T4 construct: MED22, Mus musculus, endogenous Head module subunit of Mediator; source: endogenous, CH12 mouse B lymphoma nuclear extract; immunopurified as part of Mediator (FLAG M2 agarose, FLAG peptide elution)
T4 sequence (looked up): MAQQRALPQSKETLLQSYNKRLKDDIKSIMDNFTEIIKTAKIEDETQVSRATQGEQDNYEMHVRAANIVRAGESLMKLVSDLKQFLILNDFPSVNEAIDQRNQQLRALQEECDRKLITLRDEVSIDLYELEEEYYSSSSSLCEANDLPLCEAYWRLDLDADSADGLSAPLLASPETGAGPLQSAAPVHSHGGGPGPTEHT

MED29 = biological target: T5, MED29 (mouse (Mus musculus; endogenous in CH12), UniProt Q9DB91 1-199)
T5 construct: MED29, Mus musculus, endogenous upper Tail subunit of Mediator; source: endogenous, CH12 mouse B lymphoma nuclear extract; immunopurified as part of Mediator (FLAG M2 agarose, FLAG peptide elution)
T5 sequence (looked up): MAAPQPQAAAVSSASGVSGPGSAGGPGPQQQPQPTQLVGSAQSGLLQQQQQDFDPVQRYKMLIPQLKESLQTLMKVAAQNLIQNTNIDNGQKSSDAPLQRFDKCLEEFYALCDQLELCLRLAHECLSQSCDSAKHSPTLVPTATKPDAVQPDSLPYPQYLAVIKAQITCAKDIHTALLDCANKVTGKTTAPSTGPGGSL

MED7 = biological target: T6, MED7 (mouse (Mus musculus; endogenous in CH12), UniProt Q9CZB6 1-233)
T6 construct: MED7, Mus musculus, endogenous Middle module subunit of Mediator; source: endogenous, CH12 mouse B lymphoma nuclear extract; immunopurified as part of Mediator (FLAG M2 agarose, FLAG peptide elution)
T6 sequence (looked up): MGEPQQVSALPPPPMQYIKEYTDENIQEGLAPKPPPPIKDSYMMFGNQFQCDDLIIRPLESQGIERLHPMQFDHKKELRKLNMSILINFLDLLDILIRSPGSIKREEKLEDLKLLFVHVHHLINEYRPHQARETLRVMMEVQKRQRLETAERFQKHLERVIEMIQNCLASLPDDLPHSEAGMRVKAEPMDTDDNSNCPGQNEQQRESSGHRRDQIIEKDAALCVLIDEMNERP

Measured: binding result

B1
binds: MED27 | MED20 | MED17

B2
binds: MED28 | MED30 | MED17 | MED22

B3
binds: MED27 | MED30 | MED17 | MED22 | MED29

B4
binds: MED7

B5
binds: MED27 | MED17 | MED22 | MED29
